# Results reported in US20190367592A1.
# Target: monomeric cynomolgus monkey Tau (cynomolgus monkey)
# Assay: SPR, hIgG captured, cyno Tau monomer analyte
Kd [nM],koff [s⁻¹],kon [M⁻¹ s⁻¹],Binder
0.7,0.001,1.7e+06,"hu37D3.v28.A4 (antibody, V domains shown) VH: EVQLVESGGGLVQPGGSLRLSCAASGLIFRSYGMSWVRQAPGKGLEWVATINSGGTYTYYPDSVKGRFTISRDNSKNTLYLQMNSLRAEDTAVYYCANSYSGAMDYWGQGTLVTVSS VL: DDVLTQTPLSLPVTPGQPASISCRSSQSIVHSNGNTYLEWYLQKPGQSPQLLIYKVSNRFSGVPDRFSGSGSGTDFTLKISRVEAEDVGVYYCFQGSLVPWTFGQGTKVEIK"
0.8,0.001,2e+06,"hu37D3-H9.v1 (antibody, V domains shown) VH: EVQLVESGGGLVQPGGSLRLSCAASGLIFRSYGMSWVRQAPGKGLEWVATINSGGTYTYYPDSVKGRFTISRDNSKNTLYLQMNSLRAEDTAVYYCANSYSGAMDYWGQGTLVTVSS VL: EDQLTQSPSSLSASVGDRVTITCRSSQSIVHSNGNTYFEWYQQKPGKSPKLLIYKVSNRFSGVPSRFSGSGSGTDFTLTISSLQPEDFATYYCFQGSLVPWTFGQGTKVEIK"
0.6,0.001,1.5e+06,"hu37D3-H9.v5 (antibody, V domains shown) VH: EVQLVESGGGLVQPGGSLRLSCAASGLIFRSYGMSWVRQAPGKGLEWVATINSGGTYTYYPDSVKGRFTISRDNSKNTLYLQMNSLRAEDTAVYYCANSYSGAMDYWGQGTLVTVSS VL: EDVLTQTPLSLPVTPGQPASISCRSSQSIVHSNGNTYFEWYLQKPGQSPQLLIYKVSNRFSGVPDRFSGSGSGTDFTLKISRVEAEDVGVYYCFQGSLVPWTFGQGTKVEIK"
